Laboratory results reported in patent US10441663B2, “Methods for treating cancer” (Bicycle Therapeutics Limited, priority 2016, dated 2019).
*1 amine or outer side, *2 acyl side, *3 side chain or, on linkers, in order; H or OH if unused. Where a SMILES comes first, the peptide text is derived from it. Bridges are numbered along the chain shown (N, C = ends). [ ]: non-standard residue; d: D form. The star is where a group is joined. ξ: configuration not given here. X2 = COc1cc2cc(c1Cl)N(C)C(=O)C[C@H](OC(=O)[C@H](C)N(C)C(=O)CCSC1CC(=O)N(CC3CCC(C(=O)*)CC3)C1=O)[C@@]1(C)O[C@H]1[C@H](C)[C@@H]1C[C@@](O)(NC(=O)O1)[C@H](OC)/C=C/C=C(\C)C2; 1Nal = N[C@@H](Cc1cccc2ccccc12)C(=O)O; TBMB = c1c(C[*:1])cc(C[*:3])cc1C[*:2]; Tle = CC(C)(C)[C@H](N)C(=O)O; ξA = CC(N)C(=O)O; Sar = CNCC(=O)O

Legend:
EBC-1 xenograft = assay: Efficacy of BT1721 in EBC-1 xenograft model (Example 6); format: in vivo, Mus Musculus; settings: for Tumor Size: Mean ± SEM
Method: The objective of this study was to evaluate the anti-tumor efficacy of BT1721 in EBC-1 xenograft model in female BALB/c nude mice.
The EBC-1 tumor cells were maintained in vitro as a monolayer culture in RPMI1640 medium supplemented with 10% heat inactivated fetal bovine serum at 37° C. in an atmosphere of 5% CO2 in air. The tumor cells were routinely subcultured twice weekly by trypsin-EDTA treatment. The cells growing in an exponential growth phase were harvested and counted for tumor inoculation.
Each mouse was inoculated subcutaneously at the right flank with EBC-1 tumor cells (10×10^6) in 0.2 ml of PBS for tumor development. The treatments were started on Day 7 after the tumor inoculation when the average tumor size reached approximately 152 mm^3. Each group consisted of 3 tumor-bearing mice. The testing articles were administrated to the mice according to the predetermined regimen as shown in the experimental design (Table 43).
All the procedures related to animal handling, care and the treatment in the study were performed according to the guidelines of the Association for Assessment and Accreditation of Laboratory Animal Care (AAALAC). At the time of routine monitoring, the animals were daily checked for any effects of tumor growth and treatments on normal behavior such as mobility, food and water consumption (by looking only), body weight gain/loss (body weights were measured every day), eye/hair matting and any other abnormal effect as stated in the protocol. Death and observed clinical signs were recorded on the basis of the numbers of animals within each subset.
The major endpoint was to see if the tumor growth could be delayed or mice could be cured. Tumor size was measured three times weekly in two dimensions using a caliper, and the volume was expressed in mm^3 using the formula: V=0.5 a×b^2 where a and b are the long and short diameters of the tumor, respectively. The tumor size was then used for calculations of T/C value. The T/C value (in percent) is an indication of antitumor effectiveness; T and C are the mean volumes of the treated and control groups, respectively, on a given day.
TGI was calculated for each group using the formula: TGI (%)=[1−(Ti−T0)/(Vi−V0)]×100; Ti is the average tumor volume of a treatment group on a given day, T0 is the average tumor volume of the treatment group on the day of treatment start, Vi is the average tumor volume of the vehicle control group on the same day with Ti, and V0 is the average tumor volume of the vehicle group on the day of treatment start.
Summary statistics, including mean and the standard error of the mean (SEM), are provided for the tumor volume of each group at each time point.
Statistical analysis of difference in tumor volume among the groups was conducted on the data obtained at the best therapeutic time point after the final dose.
A one-way ANOVA was performed to compare tumor volume among groups, and when a significant F-statistics (a ratio of treatment variance to the error variance) was obtained, comparisons between groups were carried out with Games-Howell test. All data were analyzed using Prism. P<0.05 was considered to be statistically significant.

HT1080 cell line = assay: In vitro cytotoxicity, ATP endpoint assay after 72 hours incubation; format: cell-based; settings: ATP endpoint, HT-1080 cells
Method: To evaluate the in vitro cytotoxicity of BT1718 and BT1721 in an HT1080 cell line using an ATP endpoint assay after 72 hours incubation.
Cells were seeded in 96 well plates (75 μl/well, HT1080=7500−15000 cell/well) and incubated overnight at 37° C.+5% CO2.
The day after cell seeding, serial dilutions (1:5) of BT1718 and BT1721 were prepared in DMSO and diluted 1:71 in cell culture media to give 4× final concentrations. Twenty five μl/well was added to the cells (2 μM or 5 μM top final concentration of BT1718 and 2 μM or 5 μM top final concentration of BT1721, <0.6% final DMSO).
Cells were 30-50% confluent upon dosing. Control wells containing 5 μM final concentration of staurosporine (positive control), lysis buffer (1% NP40, 20 mM Tris pH8, 137 mM NaCl, 10% glycerol, 2 mM EDTA, 1 mM Na Orthovanadate, 10 μg/ml leupeptin, 10 μg/ml aprotinin) positive control or media (negative control), were also included. Plates were sealed with gas permeable seals and incubated at 37° C.+5% CO2 for 72 hours. No wash steps were performed.
After a total of 72 hours after dosing, ATPLite reagent (Perkin Elmer) was equilibrated to room temperate and reconstituted in the supplied buffer as per the manufacturer's instructions. One hundred μl 1× detection reagent was added per well. Plates were sealed, protected from light and shaken gently for 20 minutes to ensure complete cell lysis before luminescence was read using a BMG Pherastar FS plate reader. […] Data was analysed using GraphPad Prism. Non-linear regression fit was used to calculate a relative IC50 for each toxic agent: Y=Bottom+(Top−Bottom)/(1+10^((Log Ic50−X)*HillSlope)) where the IC50 is defined as 50% of the total cell kill achieved at the top concentration of toxin.

COc1cc2cc(c1Cl)N(C)C(=O)C[C@H](OC(=O)[C@H](C)N(C)C(=O)CCSC1CC(=O)N(CC3CCC(C(=O)NCCCC[C@H](NC(C)=O)C(=O)NCC(=O)N(C)CC(=O)N(C)CC(=O)N(C)CC(=O)N(C)CC(=O)N(C)CC(=O)N(C)CC(=O)N(C)CC(=O)N(C)CC(=O)N(C)CC(=O)N(C)CC(=O)NC(C)C(=O)N[C@H]4CSCc5cc6cc(c5)CSC[C@H](NC(=O)[C@@H](C)NC(=O)[C@H](Cc5cccc7ccccc57)NC(=O)[C@H](CCC(=O)O)NC(=O)[C@H](CC(N)=O)NC(=O)[C@@H](C)NC4=O)C(=O)N[C@@H](CCC(=O)O)C(=O)N[C@@H](CC(=O)O)C(=O)N[C@@H](Cc4ccccc4)C(=O)N[C@@H](Cc4ccc(O)cc4)C(=O)N[C@@H](CC(=O)O)C(=O)N[C@@H](C(C)(C)C)C(=O)N[C@H](C(N)=O)CSC6)CC3)C1=O)[C@@]1(C)O[C@H]1[C@H](C)[C@@H]1C[C@@](O)(NC(=O)O1)[C@H](OC)/C=C/C=C(\C)C2 (stereo partly shown) [BT1721] (Ac-K(X2)G[Sar][Sar][Sar][Sar][Sar][Sar][Sar][Sar][Sar][Sar][ξA]C[dA]NE[1Nal][dA]CEDFYD[Tle]C-NH2; linker 14-20-27 via TBMB)
effect on tumor growth (EBC-1 xenograft; 1 mg/kg, 3 mg/kg and 10 mg/kg, day 14): didn't show any inhibitory effect on tumor growth | tumor volume trace over time (EBC-1 xenograft; 1 mg/kg, tiw, day 0): 164 ± 31 mm^3 | tumor volume trace over time (EBC-1 xenograft; 1 mg/kg, tiw, day 2): 291 ± 57 mm^3 | tumor volume trace over time (EBC-1 xenograft; 1 mg/kg, tiw, day 4): 367 ± 68 mm^3 | tumor volume trace over time (EBC-1 xenograft; 1 mg/kg, tiw, day 7): 640 ± 39 mm^3 | tumor volume trace over time (EBC-1 xenograft; 1 mg/kg, tiw, day 9): 784 ± 40 mm^3 | tumor volume trace over time (EBC-1 xenograft; 1 mg/kg, tiw, day 11): 874 ± 50 mm^3 | T/C (EBC-1 xenograft; 1 mg/kg, tiw, day 14): 22% | TGI (EBC-1 xenograft; 1 mg/kg, tiw, day 14): 82% | tumor volume trace over time (EBC-1 xenograft; 1 mg/kg, tiw, day 14): 981 ± 47 mm^3 | Tumor Size (EBC-1 xenograft; 1 mg/kg, tiw, day 14): 981 ± 47 mm^3 | tumor volume trace over time (EBC-1 xenograft; 3 mg/kg, tiw, day 0): 142 ± 18 mm^3 | tumor volume trace over time (EBC-1 xenograft; 3 mg/kg, tiw, day 2): 207 ± 60 mm^3 | tumor volume trace over time (EBC-1 xenograft; 3 mg/kg, tiw, day 4): 310 ± 61 mm^3 | tumor volume trace over time (EBC-1 xenograft; 3 mg/kg, tiw, day 7): 531 ± 116 mm^3 | tumor volume trace over time (EBC-1 xenograft; 3 mg/kg, tiw, day 9): 708 ± 132 mm^3 | tumor volume trace over time (EBC-1 xenograft; 3 mg/kg, tiw, day 11): 761 ± 147 mm^3 | T/C (EBC-1 xenograft; 3 mg/kg, tiw, day 14): 26% | TGI (EBC-1 xenograft; 3 mg/kg, tiw, day 14): 77% | tumor volume trace over time (EBC-1 xenograft; 3 mg/kg, tiw, day 14): 920 ± 210 mm^3 | Tumor Size (EBC-1 xenograft; 3 mg/kg, tiw, day 14): 920 ± 210 mm^3 | effect on tumor growth (EBC-1 xenograft; 10 mg/kg tiw): did not show any inhibitory effect on tumor growth | tumor volume trace over time (EBC-1 xenograft; 10 mg/kg, tiw, day 0): 160 ± 25 mm^3 | tumor volume trace over time (EBC-1 xenograft; 10 mg/kg, tiw, day 2): 249 ± 82 mm^3 | tumor volume trace over time (EBC-1 xenograft; 10 mg/kg, tiw, day 4): 407 ± 85 mm^3 | tumor volume trace over time (EBC-1 xenograft; 10 mg/kg, tiw, day 7): 632 ± 149 mm^3 | tumor volume trace over time (EBC-1 xenograft; 10 mg/kg, tiw, day 9): 735 ± 201 mm^3 | tumor volume trace over time (EBC-1 xenograft; 10 mg/kg, tiw, day 11): 858 ± 72 mm^3 | T/C (EBC-1 xenograft; 10 mg/kg, tiw, day 14): 6% | TGI (EBC-1 xenograft; 10 mg/kg, tiw, day 14): 96% | tumor volume trace over time (EBC-1 xenograft; 10 mg/kg, tiw, day 14): 1142 ± 147 mm^3 | Tumor Size (EBC-1 xenograft; 10 mg/kg, tiw, day 14): 1142 ± 147 mm^3 | Body Weight (EBC-1 xenograft; 1 mpk, tiw, day 0): 22.2 ± 0.7 g | Body Weight (% Change) (EBC-1 xenograft; 1 mpk, tiw, day 0): 0.0% | Body Weight (EBC-1 xenograft; 1 mpk, tiw, day 2): 22.0 ± 0.5 g | Body Weight (% Change) (EBC-1 xenograft; 1 mpk, tiw, day 2): −1.1 ± 0.7% | Body Weight (EBC-1 xenograft; 1 mpk, tiw, day 4): 22.4 ± 0.8 g | Body Weight (% Change) (EBC-1 xenograft; 1 mpk, tiw, day 4): 0.8 ± 2.3% | Body Weight (EBC-1 xenograft; 1 mpk, tiw, day 7): 22.5 ± 0.9 g | Body Weight (% Change) (EBC-1 xenograft; 1 mpk, tiw, day 7): 1.3 ± 1.4% | Body Weight (EBC-1 xenograft; 1 mpk, tiw, day 9): 23.2 ± 0.8 g | Body Weight (% Change) (EBC-1 xenograft; 1 mpk, tiw, day 9): 4.4 ± 0.8% | Body Weight (EBC-1 xenograft; 1 mpk, tiw, day 11): 22.9 ± 1.0 g | Body Weight (% Change) (EBC-1 xenograft; 1 mpk, tiw, day 11): 3.1 ± 1.7% | Body Weight (EBC-1 xenograft; 1 mpk, tiw, day 14): 23.3 ± 1.1 g | Body Weight (% Change) (EBC-1 xenograft; 1 mpk, tiw, day 14): 4.6 ± 2.0% | Body Weight (EBC-1 xenograft; 3 mpk tiw, day 0): 22.9 ± 0.4 g | Body Weight (% Change) (EBC-1 xenograft; 3 mpk tiw, day 0): 0.0% | Body Weight (EBC-1 xenograft; 3 mpk tiw, day 2): 22.3 ± 0.6 g | Body Weight (% Change) (EBC-1 xenograft; 3 mpk tiw, day 2): −2.8 ± 1.3% | Body Weight (EBC-1 xenograft; 3 mpk tiw, day 4): 22.3 ± 0.8 g | Body Weight (% Change) (EBC-1 xenograft; 3 mpk tiw, day 4): −2.8 ± 1.9% | Body Weight (EBC-1 xenograft; 3 mpk tiw, day 7): 23.1 ± 0.7 g | Body Weight (% Change) (EBC-1 xenograft; 3 mpk tiw, day 7): 0.8 ± 1.8% | Body Weight (EBC-1 xenograft; 3 mpk tiw, day 9): 23.9 ± 1.0 g | Body Weight (% Change) (EBC-1 xenograft; 3 mpk tiw, day 9): 4.0 ± 2.8% | Body Weight (EBC-1 xenograft; 3 mpk tiw, day 11): 24.0 ± 1.0 g | Body Weight (% Change) (EBC-1 xenograft; 3 mpk tiw, day 11): 4.7 ± 2.7% | Body Weight (EBC-1 xenograft; 3 mpk tiw, day 14): 24.6 ± 1.0 g | Body Weight (% Change) (EBC-1 xenograft; 3 mpk tiw, day 14): 7.2 ± 2.9% | Body Weight (EBC-1 xenograft; 10 mpk tiw, day 0): 23.2 ± 0.5 g | Body Weight (% Change) (EBC-1 xenograft; 10 mpk tiw, day 0): 0.0% | Body Weight (EBC-1 xenograft; 10 mpk tiw, day 2): 23.2 ± 0.3 g | Body Weight (% Change) (EBC-1 xenograft; 10 mpk tiw, day 2): 0.0 ± 1.5% | Body Weight (EBC-1 xenograft; 10 mpk tiw, day 4): 23.2 ± 0.4 g | Body Weight (% Change) (EBC-1 xenograft; 10 mpk tiw, day 4): −0.3 ± 0.5% | Body Weight (EBC-1 xenograft; 10 mpk tiw, day 7): 23.9 ± 0.5 g | Body Weight (% Change) (EBC-1 xenograft; 10 mpk tiw, day 7): 2.8 ± 0.6% | Body Weight (EBC-1 xenograft; 10 mpk tiw, day 9): 24.4 ± 0.4 g | Body Weight (% Change) (EBC-1 xenograft; 10 mpk tiw, day 9): 5.1 ± 0.6% | Body Weight (EBC-1 xenograft; 10 mpk tiw, day 11): 24.4 ± 0.6 g | Body Weight (% Change) (EBC-1 xenograft; 10 mpk tiw, day 11): 5.0 ± 0.3% | Body Weight (EBC-1 xenograft; 10 mpk tiw, day 14): 25.3 ± 0.5 g | Body Weight (% Change) (EBC-1 xenograft; 10 mpk tiw, day 14): 8.8 ± 0.7% | body weight effect (EBC-1 xenograft; mouse, in vivo): maintained their bodyweight well | IC50 (HT1080 cell line): 8.9 nM
